Assay results as given in article PMC5896933 (Molecular Biology of the Cell, 2018).

Target: T1, HA-tagged Ddi1^Δ202-299 (yeast, UniProt P40087 1-428, Δ202-299)
T1 sequence (looked up): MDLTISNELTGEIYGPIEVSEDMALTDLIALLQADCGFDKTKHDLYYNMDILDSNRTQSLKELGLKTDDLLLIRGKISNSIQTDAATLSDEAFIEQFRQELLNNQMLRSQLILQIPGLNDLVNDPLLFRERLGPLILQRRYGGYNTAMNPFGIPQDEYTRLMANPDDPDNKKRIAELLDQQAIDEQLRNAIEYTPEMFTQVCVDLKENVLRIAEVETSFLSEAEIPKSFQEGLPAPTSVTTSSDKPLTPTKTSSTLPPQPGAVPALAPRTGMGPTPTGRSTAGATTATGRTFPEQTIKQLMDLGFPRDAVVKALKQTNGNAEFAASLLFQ
Experiment: co-IP

B1: Cdc48-GFP (natural protein, yeast, UniProt P25694 1-835, looked up)
chain: MGEEHKPLLDASGVDPREEDKTATAILRRKKKDNMLLVDDAINDDNSVIAINSNTMDKLELFRGDTVLVKGKKRKDTVLIVLIDDELEDGACRINRVVRNNLRIRLGDLVTIHPCPDIKYATRISVLPIADTIEGITGNLFDVFLKPYFVEAYRPVRKGDHFVVRGGMRQVEFKVVDVEPEEYAVVAQDTIIHWEGEPINREDEENNMNEVGYDDIGGCRKQMAQIREMVELPLRHPQLFKAIGIKPPRGVLMYGPPGTGKTLMARAVANETGAFFFLINGPEVMSKMAGESESNLRKAFEEAEKNAPAIIFIDEIDSIAPKRDKTNGEVERRVVSQLLTLMDGMKARSNVVVIAATNRPNSIDPALRRFGRFDREVDIGIPDATGRLEVLRIHTKNMKLADDVDLEALAAETHGYVGADIASLCSEAAMQQIREKMDLIDLDEDEIDAEVLDSLGVTMDNFRFALGNSNPSALRETVVESVNVTWDDVGGLDEIKEELKETVEYPVLHPDQYTKFGLSPSKGVLFYGPPGTGKTLLAKAVATEVSANFISVKGPELLSMWYGESESNIRDIFDKARAAAPTVVFLDELDSIAKARGGSLGDAGGASDRVVNQLLTEMDGMNAKKNVFVIGATNRPDQIDPAILRPGRLDQLIYVPLPDENARLSILNAQLRKTPLEPGLELTAIAKATQGFSGADLLYIVQRAAKYAIKDSIEAHRQHEAEKEVKVEGEDVEMTDEGAKAEQEPEVDPVPYITKEHFAEAMKTAKRSVSDAELRRYEAYSQQMKASRGQFSNFNFNDAPLGTTATDNANSNNSAPSGAGAAFGSNAEEDDDLYS
fold more Cdc48 bound, normalized for the amount of precipitated Ddi1^Δ202-299: 2.1 fold
